Test results from patent publication US11795460B2, “Compositions and methods for TTR gene editing and treating ATTR amyloidosis” (Intellia Therapeutics, Inc., priority 2017, dated 2023).
Strand notation (5' to 3'): a small letter for the sugar, then the base; units joined by * are phosphorothioate-linked, units joined directly phosphodiester-linked; [ ] holds rarer units or linkages, { } end groups; capitals alone tell only the bases. m = 2'-O-methyl; r = 2'-OH (RNA)

Tests used:
TTR [1] = test: TTR editing in primary cyno hepatocytes electroporated with Spy Cas9 protein and sgRNAs (Tables 14, 15); format: cell-based, cynomolgus monkey; conditions: Table 15; primary cyno hepatocytes electroporated with Spy Cas9 protein (RNP) and cyno specific sgRNAs
Protocol: (§1) Primary liver hepatocytes. Primary human liver hepatocytes (PHH) and primary cynomolgus liver hepatocytes (PCH) (Gibco) were cultured per the manufacturer's protocol (Invitrogen, protocol 11.28.2012). In brief, the cells were thawed and resuspended in hepatocyte thawing medium with supplements (Gibco, Cat. CM7000) followed by centrifugation at 100 g for 10 minutes for human and 80 g for 4 minutes for cyno. The supernatant was discarded and the pelleted cells resuspended in hepatocyte plating medium plus supplement pack (Invitrogen, Cat. A1217601 and CM3000). Cells were counted and plated on Bio-coat collagen I coated 96-well plates (ThermoFisher, Cat. 877272) at a density of 33,000 cells/well for human or 60,000 cells/well for cyno (or 65,000 cells/well when assaying effects on TTR protein, described further below). Plated cells were allowed to settle and adhere for 6 or 24 hours in a tissue culture incubator at 37° C. and 5% CO2 atmosphere. After incubation cells were checked for monolayer formation and media was replaced with hepatocyte culture medium with serum-free supplement pack (Invitrogen, Cat. A1217601 and CM4000).
[…] formation was performed prior to electroporation or transfection of Spy Cas9 protein loaded with guide RNAs (RNPs) onto cells. For dual guide (dgRNAs), individual crRNA and trRNA was pre-annealed by mixing equivalent amounts of reagent and incubating at 95° C. for 2 min and cooling to room temperature. Single guide (sgRNAs) were boiled at 95° C. for 2 min and cooling to room temperature. The boiled dgRNA or sgRNA was incubated with Spy Cas9 protein in Optimem for 10 minutes at room temperature to form a ribonucleoprotein (RNP) complex.
For RNP electroporation into primary human and cyno hepatocytes, the cells are thawed and resuspended in Lonza electroporation Primary Cell P3 buffer at a concentration of 2500 cells per μL for human hepatocytes and 3500 cells per μL for cyno hepatocytes. A volume of 20 μL of resuspended cells and 5 μL of RNP are mixed together per guide. 20 μL of the mixture is placed into a Lonza electroporation plate. The cells were electroporated using the Lonza nucleofector with the preset protocol EX-147. Post electroporation, the cells are transferred into a Biocoat plate containing pre-warmed maintenance media and placed in a tissue culture incubator at 37° C. and 5% CO2.
Transfected cells were harvested post-transfection at 24, 48, or 72 hours. The genomic DNA was extracted from each well of a 96-well plate using 50 μL/well BuccalAmp DNA Extraction solution (Epicentre, Cat. QE09050) per manufacturer's protocol. All DNA samples were subjected to PCR and subsequent NGS analyses, as described herein.
(§2) To quantitatively determine the efficiency of editing at the target location in the genome, sequencing was utilized to identify the presence of insertions and deletions introduced by gene editing.
(§3) Primers were designed around the target site within the gene of interest (e.g. TTR), and the genomic area of interest was amplified.
(§4) Additional PCR was performed per the manufacturer's protocols (Illumina) to add chemistry for sequencing. The amplicons were sequenced on an Illumina MiSeq instrument. The reads were aligned to a reference genome (e.g., the human reference genome (hg38), the cynomologus reference genome (mf5), the rat reference genome (rn6), or the mouse reference genome (mm10)) after eliminating those having low quality scores. The resulting files containing the reads were mapped to the reference genome (BAM files), where reads that overlapped the target region of interest were selected and the number of wild type reads versus the number of reads which contain an insertion, substitution, or deletion was calculated.
The editing percentage (e.g., the “editing efficiency” or “percent editing” or “indel frequency”) is defined as the total number of sequence reads with insertions/deletions (“indels”) or substitutions over the total number of sequence reads, including wild type. […]

TTR [2] = test: TTR editing in primary cyno hepatocytes treated with LNP formulated Spy Cas9 mRNA (SEQ ID NO: 2) and sgRNAs (Tables 17, 18); format: cell-based, cynomolgus monkey; conditions: LNP formulated Spy Cas9 mRNA (SEQ ID NO: 2) and cyno matched sgRNAs, 72 hours post treatment
Protocol: as §1
In general, the lipid nanoparticle components were dissolved in 100% ethanol with the lipid component of various molar ratios. The RNA cargos were dissolved in 25 mM citrate, 100 mM NaCl, pH 5.0, resulting in a concentration of RNA cargo of approximately 0.45 mg/mL. The LNPs were formulated with a lipid amine to RNA phosphate (N:P) molar ratio of about 4.5 or about 6, with the ratio of mRNA to gRNA at 1:1 by weight.
The LNPs were formed by microfluidic mixing of the lipid and RNA solutions using a Precision Nanosystems NanoAssemblr™ Benchtop Instrument, according to the manufacturer's protocol. A 2:1 ratio of aqueous to organic solvent was maintained during mixing using differential flow rates. After mixing, the LNPs were collected, diluted in water (approximately 1:1 v/v), held for 1 hour at room temperature, and further diluted with water (approximately 1:1 v/v) before final buffer exchange. The final buffer exchange into 50 mM Tris, 45 mM NaCl, 5% (w/v) sucrose, pH 7.5 (TSS) was completed with PD-10 desalting columns (GE). If required, formulations were concentrated by centrifugation with Amicon 100 kDa centrifugal filters (Millipore). The resulting mixture was then filtered using a 0.2 μm sterile filter. The final LNP was stored at −80° C. until further use.
as §2, §3, §4
The editing percentage (e.g., the “editing efficiency” or “percent editing” or “indel frequency”) is defined as the total number of sequence reads with insertions/deletions (“indels”) or substitutions over the total number of sequence reads, including wild type.
Lipid nanoparticle formulations of modified sgRNAs targeting human TTR and the cyno matched sgRNA sequences were tested on primary human hepatocytes and primary cyno hepatocytes in a dose response curve. Primary human and cyno hepatocytes were plated as described in Example 1. […]

B1: G000507: TTR Cyno specific sgRNA modified sequence, SEQ ID No. 119; guide sequence of CR005367 (nucleic acid)
guide: mC*mC*mA*rGrUrCrCrArGrCrGrArGrGrCrArGrArGrGrGrUrUrUrUrArGrAmGmCmUmAmGmAmAmAmUmAmGmCrArArGrUrUrArArArArUrArArGrGrCrUrArGrUrCrCrGrUrUrArUrCrAmAmCmUmUmGmAmAmAmAmAmGmUmGmGmCmAmCmCmGmAmGmUmCmGmGmUmGmCmU*mU*mU*mU
TTR [1]
  Avg % Deletion: 4.60%
  Avg % Edit: 71.17%
  Avg % Insert: 67.03%

B2: G000511: TTR Cyno specific sgRNA modified sequence, SEQ ID No. 123; guide sequence of CR005371 (nucleic acid)
guide: mA*mA*mG*rUrGrArCrUrUrCrCrArGrUrArArGrArUrUrGrUrUrUrUrArGrAmGmCmUmAmGmAmAmAmUmAmGmCrArArGrUrUrArArArArUrArArGrGrCrUrArGrUrCrCrGrUrUrArUrCrAmAmCmUmUmGmAmAmAmAmAmGmUmGmGmCmAmCmCmGmAmGmUmCmGmGmUmGmCmU*mU*mU*mU
TTR [1]
  Avg % Deletion: 2.00%
  Avg % Edit: 62.77%
  Avg % Insert: 60.87%

B3: G000509: TTR Cyno specific sgRNA modified sequence, SEQ ID No. 121; guide sequence of CR005369 (nucleic acid)
guide: mA*mA*mA*rGrUrUrCrUrArGrArUrGrCrCrGrUrCrCrGrGrUrUrUrUrArGrAmGmCmUmAmGmAmAmAmUmAmGmCrArArGrUrUrArArArArUrArArGrGrCrUrArGrUrCrCrGrUrUrArUrCrAmAmCmUmUmGmAmAmAmAmAmGmUmGmGmCmAmCmCmGmAmGmUmCmGmGmUmGmCmU*mU*mU*mU
TTR [1]
  Avg % Deletion: 49.73%
  Avg % Edit: 93.03%
  Avg % Insert: 43.60%
TTR [2]
  12.5 ng mRNA, 3.9 nM sgRNA % Edit: 74.47%

B4: G000508: TTR Cyno specific sgRNA modified sequence, SEQ ID No. 120; guide sequence of CR005368 (nucleic acid)
guide: mC*mC*mU*rCrCrUrCrUrGrCrCrUrCrGrCrUrGrGrArCrGrUrUrUrUrArGrAmGmCmUmAmGmAmAmAmUmAmGmCrArArGrUrUrArArArArUrArArGrGrCrUrArGrUrCrCrGrUrUrArUrCrAmAmCmUmUmGmAmAmAmAmAmGmUmGmGmCmAmCmCmGmAmGmUmCmGmGmUmGmCmU*mU*mU*mU
TTR [1]
  Avg % Deletion: 4.17%
  Avg % Edit: 45.63%
  Avg % Insert: 41.57%
